In US5876948 (The Children's Medical Center Corporation, dated 1999):
Bridge positions count the residues as written; N and C are the ends. Square brackets hold non-standard residues; d marks the D form. Ends that are not written are not given here. NMeF = CN[C@@H](Cc1ccccc1)C(=O)O; pGlu = O=C1CC[C@@H](C(=O)O)N1; Sar = CNCC(=O)O

target: β-amyloid peptide β1-40 (polypeptide corresponding to the first 40 amino acids of β-amyloid); test: cell-based or functional assay

Row | Binder | Therapeutic Efficacy (%)
1 | RPKPQQFFGLM-NH2 [Substance P] | 100
2 | QFFGLM [Sub P (6-11)] | 65
3 | RPKPQQFFGLM-OMe [Sub P, Methyl Ester] | 71
4 | FFGLM [Sub P (7-11)] | 41
5 | RPKPQQFFGLX (nor-leucine at position 11) [[Nle^11]-Sub P] | 77
6 | RPCPQCFYPLM (disulfide 3-6; ends not checked) [[Cys^3,6, Tyr^8, Pro^9]-Sub P] | 53
7 | RPKPQQFFGLM-OH [Sub P, Free Acid] | 53
8 | [pGlu]QF[NMeF][Sar]LM (ends and bridges not checked) [[pGlu^5, Me-Phe^8, Sar^9]-Sub P (5-11)] | 41
9 | RPKPQQF [Substance P (1-7)] | 82
